The target in the test is recombinant human iduronate-2 sulfatase (rhIDS) (human) (UniProt P22304). In words: cell-based or functional assay.
recombinant human iduronate-2 sulfatase (rhIDS) (human), sequence (P22304 26-550 limits assumed): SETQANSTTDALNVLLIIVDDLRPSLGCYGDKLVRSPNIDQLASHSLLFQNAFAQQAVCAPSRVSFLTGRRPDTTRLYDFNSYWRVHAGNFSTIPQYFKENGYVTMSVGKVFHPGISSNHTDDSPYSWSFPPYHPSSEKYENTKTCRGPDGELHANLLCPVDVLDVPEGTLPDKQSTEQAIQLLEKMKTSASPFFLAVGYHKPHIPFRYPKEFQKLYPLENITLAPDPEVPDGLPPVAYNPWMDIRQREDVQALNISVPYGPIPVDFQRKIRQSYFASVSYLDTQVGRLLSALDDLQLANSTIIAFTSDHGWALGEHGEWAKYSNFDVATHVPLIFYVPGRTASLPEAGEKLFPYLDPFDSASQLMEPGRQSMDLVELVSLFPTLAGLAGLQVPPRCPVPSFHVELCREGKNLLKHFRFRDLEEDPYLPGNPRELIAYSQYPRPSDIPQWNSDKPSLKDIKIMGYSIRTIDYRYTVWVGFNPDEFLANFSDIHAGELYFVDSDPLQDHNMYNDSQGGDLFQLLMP

For the substance “Bos taurus FGE fusion protein (Lip2pre-BtFGE-6HIS-HDEL) (from UniProt Q0P5L5 34-374) (enzyme)”, the % FGly (LC-MS); 1 copy rhIDS, 1 copy BtFGE (POX) worked out at 100% and the % FGly (LC-MS); 1 copy rhIDS, 1 copy BtFGE (POX), 1 copy hPDI (POX) came out at 100%.
As for “Dendroctonus ponderosa Lip2-DpFGE-His6-HDEL fusion construct (enzyme)”, the % FGly (LC-MS); co-expression with DpFGE was 25%.

The record behind these values is US20190040368A1.
